Among the data in patent US20210206875A1, “ERBB-2 TARGETING AGENT AND A BISPECIFIC ANTIBODY WITH ANTIGEN-BINDING SITES THAT BIND AN EPITOPE ON AN EXTRACELLULAR PART OF ERB-2 AND ERBB-3, FOR TREATMENT OF AN INDIVIDUAL WITH AN ERBB-2, ERBB-2/ERBB-3 POSITIVE TUMOUR” (Merus N.V., priority 2017, published 2021) are Kd values, retold here.

The target of the experiment is Erbb-3-Fc (RND systems) (UniProt P21860). Put plainly: SPR (Biacore T100), monovalent affinity; column head 'KD on Her3 (nM)'; PB4188 on CM5 chip, Her3-Fc in solution.

Regarding “PB4188 (MF3958 x MF3178) (bispecific antibody)”, the Kd was found to be 3.9 nM.
